Substitutions are numbered along the chain they refer to. Names may count otherwise. “And” between values parts separate entries of the source, which are not always exact repeats. Identical values can stand only once.
B1: Recombinant wild-type S100P (residues 1–95), calcium-bound (natural protein, UniProt P25815 1-95, looked up)
chain: MTELETAMGMIIDVFSRYSGSEGSTQTLTKGELKVLMEKELPGFLQSGKDKDAVDKLLKDLDANGDAQVDFSEFIVFVAAITSACHKYFEKAGLK
notes: S100P, residues 1-95; 15N-labelled or unlabelled in the NMR experiments; it names no tag; also called WS100P; source: E. coli BL21(DE3), pET-20b(+), purified (size exclusion chromatography, Superdex 75)
B2: S100P F44G/Y88G/F89G triple mutant (natural protein, UniProt P25815 1-95, looked up)
chain: B1 chain with F44G, Y88G, F89G
notes: S100P, residues 1-95, with F44G, Y88G and F89G; Section 2.2 prints 'F44G/Y89G/F89G'; every other place prints F44G/Y88G/F89G; Used with 4 mM CaCl2; also called S100P F44G/Y89G/F89G (as printed in the methods); source: E. coli BL21(DE3), pET-20b(+), purified (size exclusion chromatography, Superdex 75)
B3: S100P E5A single mutant (natural protein, UniProt P25815 1-95, looked up)
chain: B1 chain with E5A
notes: S100P, residues 1-95, with E5A; Used with 4 mM CaCl2; source: E. coli BL21(DE3), pET-20b(+), purified (size exclusion chromatography, Superdex 75)
B4: S100P D13A single mutant (natural protein, UniProt P25815 1-95, looked up)
chain: B1 chain with D13A
notes: S100P, residues 1-95, with D13A; Used with 4 mM CaCl2; source: E. coli BL21(DE3), pET-20b(+), purified (size exclusion chromatography, Superdex 75)

Assays:
[1] = target: T1, Recombinant RAGE V domain (residues 24–121) (UniProt Q15109 24-121); assay: cell-based or functional assay
[2] = target: the molecule itself; assay: SEC; S100P proteins on a Superdex 75 column (1.6×60 cm), last step of purification
[3] = target: T1, Recombinant RAGE V domain (residues …); assay: ITC; S100P (2.0 mM, syringe) titrated into RAGE V domain (0.06 mM, cell); MicroCal VP-ITC; 25°C; 20 mM Tris-HCl pH 7.0, 100 mM NaCl, 4 mM CaCl2; single-site model; similar approach for the S100P mutants; details: both partners purified
[4] = target: T1, Recombinant RAGE V domain (residues …); assay: other fluorescence titration; intrinsic tryptophan fluorescence of 2 µM RAGE V domain (excitation 295 nm, emission 348.5 nm), S100P added in increments; 20 mM Tris-HCl pH 7.0, 100 mM NaCl, 4 mM CaCl2; 25°C; one-site binding model; details: both partners purified

T1 sequence (Q15109 24-121): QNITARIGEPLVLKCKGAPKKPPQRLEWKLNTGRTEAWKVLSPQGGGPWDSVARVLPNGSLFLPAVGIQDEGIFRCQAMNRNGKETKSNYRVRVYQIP

| Binder | SW-480 cell proliferation (MTT assay, 48 h), 100 nM wild-type S100P, viable cell count against the control [1] [fold] | stoichiometry N [2] | Kd [3] | dH [3] [kcal/mol] | stoichiometry N [3] | Kd [4] [µM] |
| --- | --- | --- | --- | --- | --- | --- |
| B1 | ~1.5 | 2 | 6.2 ± 0.1 µM | 4.094 ± 0.02 | 1.07 ± 0.03 | ~6.8 |
| B2 |  | 2 |  |  |  |  |
| B3 |  | 2 | 22.8 µM and 23.6 µM |  |  |  |
| B4 |  | 2 | 878 µM |  |  |  |
